Assay results: paper PMC8539922, “Reconstitution of Caveolin-1 into Artificial Lipid Membrane: Characterization by Transmission Electron Microscopy and Solid-State Nuclear Magnetic Resonance” (Molecules, 2021)
Where no end group is shown, it is not given here.

Target: the molecule itself
Experiment: negative-stain TEM + thioflavin-T fluorescence; peptide dissolved in DMSO, diluted to 1 mg/mL in 20 mM Tris, pH 8.0, incubated at 37 °C for 48 h

B1: CAV1(168-178) peptide (peptide)
peptide: SNVRINLQKEI
modifications: not fully specified
notes: Caveolin-1, residues 168-178 of the α-isoform; The ends of the two caps as printed seem swapped (a rink amide resin gives a C-terminal amide; acetyl is usually N-terminal); also called CAV1 C-terminal peptide; CAV1 C-terminus; source: synthetic peptide (Fmoc solid phase, HPLC purified)
  binding result: binds
